Experimental data reported in US20110229406A1 (U3 PHARMA, published 2011).

How the values were obtained:
HER-3 (human, on cells) = molecular target: T1, HER-3 (human, on cells) (human, UniProt P21860 20-1342); assay: indirect FACS Scatchard analysis on cells
T1 construct: whole, on cells; also called ErbB3; HER-3+ cell lines
Description: Therefore, 10⁵ cells of interest or SK-Br 3 cells were harvested with 10 mM EDTA in PBS, washed once with FACS buffer (PBS, 3% FCS, 0.4% azide) and seeded on a 96-well round bottom plate. The cells were spun for 3 min at 1000 rpm to remove supernatant and then resuspended with α-HER-3 antibody (3 μg/ml) or with antibody dilutions (100 μl/well) starting with 20 μg/ml human monoclonal antibody in FACS buffer, diluted in 1:2 dilution steps. Cell suspensions were incubated on ice for 1 hr, washed twice with FACS buffer and resuspended with secondary antibody (100 μl/well) donkey-anti-human-PE (Jackson) diluted 1:50 in FACS buffer. The cell suspensions were incubated on ice and in the dark for 30 min, washed twice with FACS buffer and analyzed (FACS, Beckman Coulter). According to the FACS Scatchard analysis, the fluorescence mean was calculated for each measurement. Background staining (=without 1st antibody) was subtracted from each fluorescence mean. Scatchard plot with x-value=fluorescence mean and y-value=fluorescence mean/concentration of mAb (nM) was generated.

[1] = molecular target: T2, rat HER-3 ECD (V5-His fusion protein) (rat, UniProt Q62799 20-643); assay: ELISA, column Rat XR (XR = cross-reactive)
T2 construct: extracellular domain; not shown: V5-His tag
T2 sequence (Q62799 20-643): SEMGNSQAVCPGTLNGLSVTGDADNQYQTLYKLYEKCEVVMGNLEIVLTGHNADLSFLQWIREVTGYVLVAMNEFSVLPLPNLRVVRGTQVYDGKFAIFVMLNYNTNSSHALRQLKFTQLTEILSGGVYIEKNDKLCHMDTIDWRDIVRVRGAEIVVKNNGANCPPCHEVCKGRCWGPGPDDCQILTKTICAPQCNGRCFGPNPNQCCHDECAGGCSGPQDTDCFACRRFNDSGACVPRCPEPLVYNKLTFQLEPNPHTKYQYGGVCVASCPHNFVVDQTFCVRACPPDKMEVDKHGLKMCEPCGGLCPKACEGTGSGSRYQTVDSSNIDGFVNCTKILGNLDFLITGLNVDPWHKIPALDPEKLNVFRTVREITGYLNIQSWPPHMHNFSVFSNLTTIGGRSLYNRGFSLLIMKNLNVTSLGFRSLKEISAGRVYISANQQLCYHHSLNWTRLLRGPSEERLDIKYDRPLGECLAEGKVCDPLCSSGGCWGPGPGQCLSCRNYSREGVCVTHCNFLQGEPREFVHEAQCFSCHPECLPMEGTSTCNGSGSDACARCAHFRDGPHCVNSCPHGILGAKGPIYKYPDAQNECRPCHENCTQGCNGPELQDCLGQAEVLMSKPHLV

[2] = molecular target: T3, reduced, denatured HER-3-His tagged purified ECD protein (human, UniProt P21860 20-643); assay: dot blot of reduced, denatured HER-3-His ECD
T3 construct: extracellular domain; Same protein as m2, but reduced and denatured (disulfide bonds broken); not shown: His tag

B1: U1-39 (antibody, V domains shown)
VH: EVQLVESGGGLIQPGGSLRLSCAASGFTVSSNYMSWVRQAPGKGLDWVSVIYSGGSTYYADSVKGRFTISRDNSKNTLYLQMNSLRAEDTAVYYCARGQWLDVWGQGTTVTVSS
VL: DIVMTQSPLSLPVTPGEPASISCRSSQSLLHSNGYNYLDWYLQRPGQSPQLLFYLGFHRASGVPDRFSGSGSGTDFTLKISRVEAEDVGVYYCRQALQTPLTFGGGTKVEIK
Kd (HER-3 (human, on cells)): 102 nM

B2: U1-41 (antibody, V domains shown)
VH: QVQLQESGPGLVKPSQTLSLTCTVSGGSISSGGYYWSWIRQHPGKGLEWIGYIYYSGSTYYNPSLKSRVTISVDTSKNQFSLKLSSVTAADTAVYFCARDRELEGYSNYYGVDVWGQGTTVTVS
VL: DIQMTQSPSSLSASVGDRVTITCRASQAISNYLNWYQQKPGKAPKLLIYAASSLQSGVPSRFSGSGSGTDFTLTISSLQPEDFATYYCQQNNSLPITFGQGTRLEIK
Kd (HER-3 (human, on cells)): 0.18 nM

B3: U1-43 (antibody, V domains shown)
VH: QVQLQESGPGLVKPSQTLSLTCTVSGGSISSGGYYWSWIRQHPGKGLEWIGYIYYSGSTYYNPSLRSRVTISVDTSKNQFSLKLSSVTAADTAVYYCARDREREWDDYGDPQGMDVWGQGTTVTVS
VL: DIQMTQSPSSLSASVGDRVTITCRASQSISSYLHWYQQKPGKAPKLLIHAASSLQSGVPSRFSGSGSGTDFTLTISSLQPEDFATYYCQQSYSNPLTFGGGTKVEIQ
Kd (HER-3 (human, on cells)): 0.57 nM

B4: U1-44 (antibody, V domains shown)
VH: EVQLVQSGAEVKKPGESLKISCKGSGYSFTSYWIGWVRQMPGKGLEWMGIIWPGDSDTIYSPSFQGQVTISADKSISTAYLQWSSLKASDTAMYYCARHENYGDYNYWGQGTLVTVSS
VL: DIQMTQSPSSLSASVGDRVTITCRASQSIRSYLNWYQQKPGNAPKLLIYAASSLQSGVPSRFSGSGSGTDFTLTISSLQPEDFALYYCQQSISSPLTFGGGTKVEIK
Kd (HER-3 (human, on cells)): 4 nM

B5: U1-61 (antibody, V domains shown)
VH: QVQLQESGPGLVKPSQTLSLTCTVSGVSISSGGYYWSWIRQHPGMGLEWIGYIYYSGSTYYNPSLKSRVTISEDTSKNQFSLKLSSVTAADTAVYYCARDSESEYSSSSNYGMDVWGQGTTVTVS
VL: DIQMTQSPSSLSASVGDRITITCRASQTISSYLNWYQQKPGKAPKLLIYAASSLQGGVPSRFSGSVSGTDFTLTVSSLQPEDFATYYCQQSYSNPLTFGGGTKVEIK
Kd (HER-3 (human, on cells)): 0.13 nM

B6: U1-62 (antibody)
chain 1: EVQLVQSGAEVKKPGESLKISCKGSGYSFTSYWIGWVRQMPGKGLEWMGIIYPGDSDTRYSPSFQGQVTMSADKSISTAYLQLSSHEGLGHRHVLLCETDGWKLRTSRVIETSWGQGTTVTVS
chain 2: not shown
Kd (HER-3 (human, on cells)): 20.4 nM

B7: U1-47 (antibody, V domains shown)
VH: QVQLQQSGPGLVKPSQTLSLTCAISGDSVSSNSAAWNWIRQSPSRGLEWLGRTYYRSKWYNDYAVSVKSRITINPDTSKNQFSLQLNSVTPEDTAVYYCARDYYGSGSFYYYYGMDVWGQGTTVTVS
VL: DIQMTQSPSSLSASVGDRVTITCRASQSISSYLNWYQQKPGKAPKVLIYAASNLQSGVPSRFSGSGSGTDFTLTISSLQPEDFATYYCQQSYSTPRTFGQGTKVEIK
Kd (HER-3 (human, on cells)): 9.38 nM

B8: U1-49 (antibody, human IgG1, V domains shown)
VH: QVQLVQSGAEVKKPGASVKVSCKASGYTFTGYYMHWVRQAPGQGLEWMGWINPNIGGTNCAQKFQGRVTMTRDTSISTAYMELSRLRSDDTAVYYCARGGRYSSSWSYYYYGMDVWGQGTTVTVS
VL: DILMTQTPLSLSVTPGQPASISCKSSQSLLLSDGGTYLYWYLQKPGQPPQLLIYEVSNRFSGVPDRFSGSGSGTDFTLKISRVEAEDVGVYYCMQSMQLPITFGQGTRLEIK
notes: also called human IgG1 HER-3 mAb, U1-49
binding result [1]: no binding
binding result [2]: no binding
Kd (HER-3 (human, on cells)): 1 nM

B9: U1-51 (antibody, V domains shown)
VH: QVQLQESGPGLVKPSETLSLTCTVSGGSISSYYWSWIRQPPGKGLEWIGYIYYSGSTNYNPSLKSRVTISVDTSKHQFSLKLSSVTAADTAVYYCARDSSYYDSSGYYLYYYAMDVWGQGTTVTVS
VL: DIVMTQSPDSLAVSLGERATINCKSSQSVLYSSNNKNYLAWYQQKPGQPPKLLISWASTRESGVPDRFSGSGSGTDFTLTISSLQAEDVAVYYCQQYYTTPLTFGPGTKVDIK
Kd (HER-3 (human, on cells)): 132 nM

B10: U1-53 (antibody, V domains shown)
VH: EVQLVESGGGLVQPGGSLRLSCAASGFTFSIYSMNWVRQAPGKGLEWVSYISSSSSTIYYADSVKGRFTISRDNAKNSLYLQMNSLRDEDTAVYYCARDRGDFDAFDIWGQGTMVTVSS
VL: DIQMTQSPSSLSASVGDRVTITCQASQDITNYLNWYQQKPGKAPKLLIYDASNLETGVPSRFSGSGSGTDFTFTISSLQPEDIATYNCQQCENFPITFGQGTRLEIK
notes: also called mAb U1-53
binding result [1]: no binding
binding result [2]: no binding
Kd (HER-3 (human, on cells)): 0.082 nM

B11: U1-55.1 (antibody, V domains shown)
VH: QVQLQESGPGLVKPSETLSLTCTVSGGSVSSGGYYWNWIRQPPGKGLEWIGYINYSGSTNYNPSLKSRVTISVDTSKNQFSLKLSSVTAADTAVYYCARDRELELYYYYYGMDVWGQGTTVTVS
VL: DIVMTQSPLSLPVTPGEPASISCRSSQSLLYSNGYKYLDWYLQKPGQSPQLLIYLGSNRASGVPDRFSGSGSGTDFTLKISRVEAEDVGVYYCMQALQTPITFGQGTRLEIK
Kd (HER-3 (human, on cells)): 3.7 nM

B12: U1-58 (antibody, V domains shown)
VH: QVQLVESGGGVVQPGRSLRLSCAASGFTFSSYGMHWVRQAPGKGLEWVAVIWYDGSNKYYADSVKGRFTISRDNSKNTLYLQMNSLRAEDTAVYYCARAARLDYYYGMDVWGQGTTVTVSS
VL: DIQMTQSPSSLSASVGDRVSITCRASQSINSYLNWFQQKPGKAPQLLIFGASGLQSGVPSRFSGSGSGTDFTLTINSLQPEDFATYYCQQSYSSPLTFGQGTRLEIK
Kd (HER-3 (human, on cells)): 6.4 nM

B13: U1-59 (antibody, human IgG1, V domains shown)
VH: QVQLQQWGAGLLKPSETLSLTCAVYGGSFSGYYWSWIRQPPGKGLEWIGEINHSGSTNYNPSLKSRVTISVETSKNQFSLKLSSVTAADTAVYYCARDKWTWYFDLWGRGTLVTVSS
VL: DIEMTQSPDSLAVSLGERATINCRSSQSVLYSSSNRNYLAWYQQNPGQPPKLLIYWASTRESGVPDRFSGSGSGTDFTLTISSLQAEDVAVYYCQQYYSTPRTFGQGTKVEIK
notes: human IgG1 (gamma 1 constant) with human kappa constant region; also called mAb U1-59; IgG1 mAb consisting of the VH4-34 and the B3 kappa chain
binding result [1]: binds
Kd (HER-3 (human, on cells)): 3.69 nM

B14: U1-24 (antibody, V domains shown)
VH: QVQLQESGPGLVKPSQTLSLTCTVSGGSISSGDYYWSWIRQHPGKGLEWIGYIYYSGSTYYNPSLKSRVTISVDTSKNQFSLKLSSVTAADTAVYYCARADYDFWNGYFDYWGQGTLVTVSS
VL: DIQMTQSPSSLSASVGDRVTITCRASQGIRNDLGWYQQKPGKAPKRLIYAASSLQSGVPSRFSGSGSGTEFTLTISSLQPEDFATYYCLQHNNYPWTFGQGTKVEIK
Kd (HER-3 (human, on cells)): 0.06 nM

B15: U1-7 (antibody, V domains shown)
VH: QVQLQESGPGLVKPSQTLSLTCTVSGGSISSGDYYWSWIRQHPGKGLEWIGYIYYSGSTYYNPSLKSRVTISVDTSKNQFSLKLSSVTAADTAVYYCARADYDFWSGYFDYWGQGTLVTVSS
VL: DFQMTQSPSSLSASVGDRVTITCRASQDIRNDLGWYRQKPGKAPKRLIYAASSLQSGVPSRFSGSGSGTEFTLTISSLQPEDFATYYCLQHNSYPWTFGQGTKVEIK
Kd (HER-3 (human, on cells)): 0.02 nM
